Molecular target: the molecule itself
Assay: SDS-PAGE and western blot; purified MOMP in SDS loading buffer, all samples heated and reduced; NuPAGE gel; blot with anti-CtE EB mouse sera; SDS-resistant dimeric and oligomeric forms

B1: recombinant C. trachomatis Serovar E major outer membrane protein, expressed in the E. coli outer membrane with a PelB leader and purified (natural protein)
chain: LPVGNPAEPSLMIDGILWEGFGGDPCDPCTTWCDAISMRMGYYGDFVFDRVLKTDVNKEFQMGDKPTSTTGNATAPTTLTARENPAYGRHMQDAEMFTNAACMALNIWDRFDVFCTLGASSGYLKGNSASFNLVGLFGDNENQSTVKTNSVPNMSLDQSVVELYTDTAFSWSVGARAALWECGCATLGASFQYAQSKPKVEELNVLCNAAEFTINKPKGYVGQEFPLALIAGTDAATGTKDASIDYHEWQASLALSYRLNMFTPYIGVKWSRASFDADTIRIAQPKSATAIFDTTTLNPTIAGAGDVKASAEGQLGDTMQIVSLQLNKMKSRKSCGIAVGTTIVDADKYAVTVETRLIDERAAHVNAQFRF
notes: Major outer membrane protein (MOMP), C. trachomatis strain E/12-94 Serovar E, ORF O175_03780; also called rCtE-MOMP; rMOMP
B1: binds.
